The values below are quoted from earlier work in paper PMC5158201.

pKd: −log10 of the molar value.

This series deals with decoy IL-1 receptor (IL-1RII) (Homo sapiens) (UniProt P27930).
Sequence of UniProt P27930 (P27930 14-398): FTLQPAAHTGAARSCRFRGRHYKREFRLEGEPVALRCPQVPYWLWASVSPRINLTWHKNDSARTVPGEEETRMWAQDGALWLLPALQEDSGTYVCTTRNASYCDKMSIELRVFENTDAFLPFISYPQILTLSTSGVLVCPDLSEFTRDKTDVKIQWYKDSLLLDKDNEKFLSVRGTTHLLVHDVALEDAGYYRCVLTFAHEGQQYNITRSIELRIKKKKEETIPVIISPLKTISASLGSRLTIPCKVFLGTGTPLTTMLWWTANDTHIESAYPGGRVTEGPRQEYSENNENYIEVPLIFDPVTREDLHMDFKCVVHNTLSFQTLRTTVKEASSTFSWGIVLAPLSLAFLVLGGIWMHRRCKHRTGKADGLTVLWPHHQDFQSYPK

The pKd is −log10 of the Kd, conventionally taken in molar units. IL-1α (from UniProt P01583): the pKd was 10.52.
